Results reported in patent US20190010205A1.

Biological target: human prolactin receptor (hPRLR) expressed on mouse BaF3 cells (BaF3/hPRLR cells) (human) (UniProt P16471)
Experiment: cell-based or functional assay

Sequence of human prolactin receptor (hPRLR) expressed on mouse BaF3 cells (BaF3/hPRLR cells) (human) (P16471 25-622): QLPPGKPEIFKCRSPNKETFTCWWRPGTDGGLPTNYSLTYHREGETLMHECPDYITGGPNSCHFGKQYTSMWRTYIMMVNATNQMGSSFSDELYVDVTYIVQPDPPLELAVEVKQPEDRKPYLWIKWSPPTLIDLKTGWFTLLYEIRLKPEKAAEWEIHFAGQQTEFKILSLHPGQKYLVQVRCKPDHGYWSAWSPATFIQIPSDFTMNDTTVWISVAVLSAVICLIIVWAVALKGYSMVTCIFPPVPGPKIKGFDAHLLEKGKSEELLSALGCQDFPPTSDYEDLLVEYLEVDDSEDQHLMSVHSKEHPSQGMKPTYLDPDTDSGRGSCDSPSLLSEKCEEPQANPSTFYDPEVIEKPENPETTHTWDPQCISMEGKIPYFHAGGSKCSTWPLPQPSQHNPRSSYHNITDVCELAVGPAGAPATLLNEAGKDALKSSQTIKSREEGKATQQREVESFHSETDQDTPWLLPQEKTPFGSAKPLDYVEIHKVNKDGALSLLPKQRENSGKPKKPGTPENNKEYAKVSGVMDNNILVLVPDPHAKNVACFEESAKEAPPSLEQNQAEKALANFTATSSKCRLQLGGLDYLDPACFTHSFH

human prolactin (hPRL, R&D System Inc.) (from UniProt P01236 29-227) (ligand)
EC50, growth of BaF3/hPRLR cells (positive control): 2.1 pM
